# Experimental data: paper PMC9273934 (2022)
# T1: recombinant CD81 large extracellular loop
# T1 chain: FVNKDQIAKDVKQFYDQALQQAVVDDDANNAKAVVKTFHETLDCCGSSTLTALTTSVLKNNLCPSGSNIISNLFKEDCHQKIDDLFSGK
# Target: T1, recombinant CD81 large extracellular …
# Test: SPR
# Fc-E1E2 from H77 (GT1a), recombinant full-length E1E2 heterodimer (complex), sequence (P27958 192-383 limits assumed): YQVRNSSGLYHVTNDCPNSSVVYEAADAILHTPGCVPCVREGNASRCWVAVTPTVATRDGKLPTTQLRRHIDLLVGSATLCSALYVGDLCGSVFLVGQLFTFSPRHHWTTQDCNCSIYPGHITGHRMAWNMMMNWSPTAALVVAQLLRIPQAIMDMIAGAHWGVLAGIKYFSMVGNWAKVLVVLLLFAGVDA
# Fc-E1E2 from H77 (GT1a), recombinant full-length E1E2 heterodimer (complex), sequence (P27958 384-746 limits assumed): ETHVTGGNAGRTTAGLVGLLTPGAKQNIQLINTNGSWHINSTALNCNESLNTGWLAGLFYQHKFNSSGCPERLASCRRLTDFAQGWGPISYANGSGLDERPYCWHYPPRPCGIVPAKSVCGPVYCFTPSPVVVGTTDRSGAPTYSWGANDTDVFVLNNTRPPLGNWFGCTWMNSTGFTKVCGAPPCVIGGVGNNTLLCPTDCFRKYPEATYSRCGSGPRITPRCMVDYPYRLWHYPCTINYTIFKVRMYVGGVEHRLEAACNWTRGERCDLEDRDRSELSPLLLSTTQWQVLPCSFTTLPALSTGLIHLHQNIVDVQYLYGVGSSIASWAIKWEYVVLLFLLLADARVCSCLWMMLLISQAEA
row,Molecule,koff
1,"Fc-E1E2 from J6 (GT2a), recombinant full-length E1E2 heterodimer (complex) chain 1: AEVKNISTGYMVTNDCTNDSITWQLQAAVLHVPGCVPCEKVGNASQCWIPVSPNVAVQRPGALTQGLRTHIDMVVMSATLCSALYVGDLCGGVMLAAQMFIVSPQHHWFVQDCNCSIYPGTITGHRMAWDMMMNWSPTATMILAYAMRVPEVIIDIISGAHWGVMFGLAYFSMQGAWAKVVVILLLAAGVDA chain 2: RTHTVGGSAAQTTGRLTSLFDMGPRQKIQLVNTNGSWHINRTALNCNDSLHTGFIASLFYTHSFNSSGCPERMSACRSIEAFRVGWGALQYEDNVTNPEDMRPYCWHYPPRQCGVVSAKTVCGPVYCFTPSPVVVGTTDRLGAPTYTWGENETDVFLLNSTRPPLGSWFGCTWMNSSGYTKTCGAPPCRTRADFNASTDLLCPTDCFRKHPDTTYLKCGSGPWLTPRCLIDYPYRLWHYPCTVNYTIFKIRMYVGGVEHRLTAACNFTRGDRCNLEDRDRSQLSPLLHSTTEWAILPCSYSDLPALSTGLLHLHQNIVDVQFMYGLSPALTKYIVRWEWVILLFLLLADARVCACLWMLILLGQAEA",0.00104 s⁻¹
2,"Fc-E1E2 from HK6a (GT6a), recombinant full-length E1E2 heterodimer (complex) chain 1: LTYGNSSGLYHLTNDCPNSSIVLEADAMILHLPGCLPCVRVNNNQSICWHAVSPTLAIPNASTPATGFRRHVDLLAGAAVVCSSLYIGDLCGSLFLAGQLFTFQPRRHWTVQDCNCSIYTGHVTGHRMAWDMMMNWSPTTTLVLSSILRVPEICASVISGGHWGILLAVAYFGMAGNWLKVLAVLFLFAGVE chain 2: ATTTIGHQVGRTTGGLASLFSIGPRQNLQLINTTGSWHINRTALNCNDSLQTGFITSLFYAKNVNSSGCPERMAACKPLADFRQGWGQITYKVNISGPSDDRPYCWHYAPRPCDVVSARTVCGPVYCFTPSPVVVGTTDKLGIPTYNWGENETDVFMLESLRPPTGGWFGCTWMNSTGFTKTCGAPPCQIVPGDYNSSANELLCPTDCFRKHPEATYQRCGSGPWITPRCLVDYPYRLWHYPCTVNFTLHKVRMFVGGIEHRFDAACNWTRGERCDLHDRDRIEMSPLLFSTTQLAILPCSFSTMPALSTGLIHLHQNIVDVQYLYGVSSSVTSWVVKWEYIVLVFLVLADARICTCLWLMLLITNVEA",0.0022 s⁻¹
3,"Fc-E1E2 from S52 (GT3a), recombinant full-length E1E2 heterodimer (complex) chain 1: LEWRNTSGLYVLTNDCSNSSIVYEADDVILHTPGCVPCVQDDNTSTCWTPVTPTVAVRYVGATTASIRSHVDLLVGAATLCSALYVGDMCGAVFLVGQAFTFRPRRHQTVQTCNCSLYPGHVSGHRMAWDMMMNWSPAVGMVVAHILRLPQTLFDILAGAHWGILAGLAYYSMQGNWAKVAIVMIMFSGVDA chain 2: ETYVTGGSVAHSARGLTSLFSMGAKQKLQLVNTNGSWHINSTALNCNESINTGFIAGLFYYHKFNSTGCPQRLSSCKPIISFRQGWGPLTDANITGPSDDRPYCWHYAPRPCSVVPASSVCGPVYCFTPSPVVVGTTDIKGKPTYNWGENETDVFLLESLRPPSGRWFGCAWMNSTGFLKTCGAPPCNIYGGEGDPENETDLFCPTDCFRKHPEATYSRCGAGPWLTPRCMVDYPYRLWHYPCTVNFTLFKVRMFVGGFEHRFTAACNWTRGERCNIEDRDRSEQHPLLHSTTELAILPCSFTPMPALSTGLIHLHQNIVDVQYLYGVGSDMVGWALKWEFVILVFLLLADARVCVALWLMLMVSQAEA",0.000465 s⁻¹
4,"Fc-E1E2 from Con1 (GT1b), recombinant full-length E1E2 heterodimer (complex) chain 1: YEVRNVSGVYHVTNDCSNASIVYEAADMIMHTPGCVPCVRENNSSRCWVALTPTLAARNASVPTTTIRRHVDLLVGAAALCSAMYVGDLCGSVFLVAQLFTFSPRRHETVQDCNCSIYPGHVTGHRMAWDMMMNWSPTAALVVSQLLRIPQAVVDMVAGAHWGVLAGLAYYSMVGNWAKVLIVMLLFAGVDG chain 2: GTYVTGGTMAKNTLGITSLFSPGSSQKIQLVNTNGSWHINRTALNCNDSLNTGFLAALFYVHKFNSSGCPERMASCSPIDAFAQGWGPITYNESHSSDQRPYCWHYAPRPCGIVPAAQVCGPVYCFTPSPVVVGTTDRFGVPTYSWGENETDVLLLNNTRPPQGNWFGCTWMNSTGFTKTCGGPPCNIGGIGNKTLTCPTDCFRKHPEATYTKCGSGPWLTPRCLVHYPYRLWHYPCTVNFTIFKVRMYVGGVEHRLEAACNWTRGERCNLEDRDRSELSPLLLSTTEWQVLPCSFTTLPALSTGLIHLHQNVVDVQYLYGIGSAVVSFAIKWEYVLLLFLLLADARVCACLWMMLLIAQAEA",0.00277 s⁻¹

# Target: recombinant CD81 large extracellular loop
# Test: SPR; BiaCore T200, CM5 chip, room temperature; CD81-LEL immobilised at about 150 RU; Fc-E1E2 flowed at 0-250 ug/ml; HBS-EP pH 7.4, 150 mM NaCl; 1:1 steady state binding model
row,Molecule,Kd
1,"Fc-E1E2 from H77 (GT1a), recombinant full-length E1E2 heterodimer (complex)",382 nM
2,"Fc-E1E2 from J6 (GT2a), recombinant full-length E1E2 heterodimer (complex)",243 nM
3,"Fc-E1E2 from Con1 (GT1b), recombinant full-length E1E2 heterodimer (from UniProt Q9WMX2 192-383; Q9WMX2 384-746) (complex)",327 nM
4,"Fc-E1E2 from S52 (GT3a), recombinant full-length E1E2 heterodimer (complex)",71 nM
5,"Fc-E1E2 from HK6a (GT6a), recombinant full-length E1E2 heterodimer (complex)",775 nM
